Here are results for 13 molecules from patent US20030139374A1 (University of Texas, published 2003).

The subject of series [1] is Mouse bEnd.3 endothelial cells. In words: Phosphatidylserine induction by hydrogen peroxide. It counts as cell-based. The procedure:
Mouse bEnd.3 endothelial cells were seeded at an initial density of 50,000 cells/well. Twenty-fours later cells were incubated with increasing concentrations of H2O2 (from 10 μM to 500 μM) for 1 hour at 37° C. or left untreated. At the end of the incubation, cells were washed 3 times with PBS containing 0.2% gelatin and fixed with 0.25% glutaraldehyde. Identical wells were either stained with anti-PS IgM or trypsinized and evaluated for viability by the Trypan Blue exclusion test. For the anti-PS staining, after blocking with 2% gelatin for 10 min., cells were incubated with 2 μg/ml of anti-PS antibody, followed by detection with anti-mouse IgM-HRP conjugate.

Another series concerns bEnd 3 cells. The series can be described thus: Cell bound coagulation assay on stimulated bEnd 3 endothelial cells (factor Xa generation). Type of series: cell-based, murine.
The test system of series [2] is tissue factor on the surface of HUVEC cells. In words: FACS analysis of tissue factor expression on HUVEC. Type of series: cell-based, human. The conditions noted are these: TNFα 500 U/ml, LPS 10 μg/ml, VEGF 1 nM; 6 h. The method, then: To analyze tissue factor expression on the surface of endothelial cells, HUVEC cells were incubated with TNFα (500 U/ml), LPS (10 μg/ml) or vascular endothelial growth factor (VEGF, 1 nM) alone or in combination for 6 h at 37°. Cells were then detached and stained for surface expression of human tissue factor with a sheep-anti-human tissue factor antibody (Haemochrom, Essen, Germany) and an appropriate FITC-conjugated secondary antibody. Fluorescent cells were detected on a flow cytometer (Becton Dickinson, San Jose, Calif.).
On the technique in general: In flow cytometry, cells or beads pass a laser one at a time.

The test system of another series is Mouse endothelial cells. In words: TNFα, cell based two stage coagulation assay. The procedure:
Mouse endothelial cells were seeded in 48 well tissue culture plates and allowed to adhere overnight. Cells were stimulated with TNFα at the following concentrations: 500 U/ml 100 U/ml; 20 U/ml; 4 U/ml; 0.8 U/ml 0.16 U/ml; and with medium only.
Endothelial cells were also tested for coagulant activity in a cell based two stage coagulation assay. After incubation with TNFα, cells were washed and incubated with coagulation factor mix (0.5 μg/ml factor VIIa in a mix containing 2.8 μg/ml factor IX, 3.4 μg/ml factor X, 50 μM phospholipids in calcium buffer). The supernatant of wells was transferred into a 96 well ELISA plate. Substrate S2765 was added and Factor Xa generation measured.

Series [3] relates to HT29 (human colorectal carcinoma) xenograft. The series can be described thus: HT29 xenograft necrosis after tTF constructs with Factor VIIa. The arrangement: species or system BALB/c nu/nu mice. The conditions noted are these: mouse, in vivo, iv.
For another series, the system named is A20 lymphoma cells. In words: In vitro coagulation assay on A20 cells with B21-2/10H10 capture antibody. Type of series: cell-based, mouse. The conditions noted are these: for concentration at which plasma coagulated in 50 seconds: bound via B21-2/10H10 to A20 cells; for coagulation times versus tTF219 and Factor VIIa at the same concentrations: Factor VIIa at 1 nM or greater.

For series [4], the system named is factor X to Xa conversion. In words: Factor Xa production assay on A20 cells. Type of series: cell-based. The note with it: Factors II, VII and IX present.
Series [5] addresses T1, recombinant human VEGF (VEGF165) (human, UniProt P15692-4 27-191, biotinylated in the capture and competition ELISAs).
T1 construct: also called free VEGF; VEGF-biotin
The series can be described thus: capture ELISA, antibody-coated wells, biotinylated VEGF titrated. Background: An ELISA detects its analyte on a solid surface through an enzyme-linked reagent.

A further series concerns the target T2, VEGF:Flk-1 complex (human; mouse, UniProt P15692 27-191; P35918 20-762, biotinylated).
T2 construct: Formed overnight at 4 C at a molar ratio of sFlk-1 to VEGF of 2.5:1; also called VEGF:receptor complex; VEGF:sFlk-1
The series can be described thus: capture ELISA, antibody-coated wells, soluble VEGF:sFlk-1-biotin titrated.

The target in series [6] is T1, recombinant human VEGF (VEGF165). The series can be described thus: competition ELISA, 1 nM VEGF on VEGFR1 (Flt-1/Fc) wells, 100 fold molar excess of 2C3.
Series [7] has the same target. In words: competition ELISA, 1 nM VEGF on VEGFR1 (Flt-1/Fc) wells, 1000 fold molar excess of 2C3.

By cell viability is commonly meant a read-out of living cells in per cent, often relative to untreated cells. Broadly, the EC50 is the concentration at which the effect is half-maximal.

Where a chain is given by its changes, count along the chain named. In names and notes the source's numbering stands.

T1 sequence (P15692 other isoform, or with tags, fused parts or gaps limits assumed): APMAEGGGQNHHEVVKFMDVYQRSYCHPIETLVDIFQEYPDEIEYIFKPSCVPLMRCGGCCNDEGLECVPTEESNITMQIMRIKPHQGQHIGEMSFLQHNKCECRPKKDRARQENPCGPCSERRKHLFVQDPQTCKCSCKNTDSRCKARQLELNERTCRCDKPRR
T2 sequence (P15692 other isoform, or with tags, fused parts or gaps limits assumed, chain 1 of 2): as the sequence (P15692 other isoform, or with tags, fused parts or gaps limits assumed) above
T2 sequence (P35918 20-762 limits assumed, chain 2 of 2): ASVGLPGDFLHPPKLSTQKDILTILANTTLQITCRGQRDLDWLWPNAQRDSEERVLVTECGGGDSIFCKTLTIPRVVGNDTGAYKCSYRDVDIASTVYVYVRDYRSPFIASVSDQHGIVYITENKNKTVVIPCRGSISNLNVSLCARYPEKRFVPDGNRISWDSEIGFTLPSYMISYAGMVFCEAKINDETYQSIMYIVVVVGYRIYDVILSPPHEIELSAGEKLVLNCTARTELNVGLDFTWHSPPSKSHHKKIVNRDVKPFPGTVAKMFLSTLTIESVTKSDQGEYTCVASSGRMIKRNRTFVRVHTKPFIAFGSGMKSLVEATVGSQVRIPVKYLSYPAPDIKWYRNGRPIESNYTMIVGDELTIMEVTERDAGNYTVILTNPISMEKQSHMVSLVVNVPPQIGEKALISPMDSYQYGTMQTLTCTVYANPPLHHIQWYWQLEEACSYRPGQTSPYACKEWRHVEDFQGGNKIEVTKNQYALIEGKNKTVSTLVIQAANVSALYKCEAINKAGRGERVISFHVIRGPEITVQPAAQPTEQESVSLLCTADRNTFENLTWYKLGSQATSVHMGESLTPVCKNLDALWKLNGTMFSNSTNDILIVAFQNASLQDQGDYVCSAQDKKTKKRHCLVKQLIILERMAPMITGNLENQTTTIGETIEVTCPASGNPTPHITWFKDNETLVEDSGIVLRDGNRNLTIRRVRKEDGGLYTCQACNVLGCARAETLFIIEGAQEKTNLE

Turning to `OO` [H2O2], the “cells with PS detected at the cell surface” value in series [1] (concentrations as low as 20 μM) was “about 50%”. The molecule further yielded a cell viability in series [1] (low levels of H2O2 (lower than 100 μM), identical to untreated) of 95%. Regarding TNFα, the “Factor Xa generation” value in the series on bEnd 3 cells (stimulation with TNFα (500 U/ml), then incubation with labelled agent (label TNFα = medium only), 0.5 μg/ml factor VIIa) came out at 0.35 nkatS2222. Besides, in the series on bEnd 3 cells (stimulation with TNFα (label TNFα = medium only), 2 μg/ml factor VII and 0.01 μg/ml factor VIIa, factor VII-only values subtracted), the “Factor Xa generation due to Factor VIIa production” value stood at 1.23 nkatS2222. Besides, in series [2], the “tissue factor expression on the surface of endothelial cells” value was “upregulated”. Further, the “fold lower dose for coagulant effect than for VCAM-1 upregulation” value in the series with Mouse endothelial cells was found to be 125 fold. Moreover, the “TNFα at which an increase in comparison to the negative control could be detected” value in the series with Mouse endothelial cells (coagulation assay) is 0.16 U/ml. Take VEGF: in series [2], the “tissue factor expression on the surface of endothelial cells” value is listed as “upregulated”.

B1: Factor VIIa: recombinant human Factor VIIa (protein)
chain: ANAFLEELRPGSLERECKEEQCSFEEAREIFKDAERTKLFWISYSDGDQCASSPCQNGGSCKDQLQSYICFCLPAFEGRNCETHKDDQLICVNENGGCEQYCSDHTGTKRSCRCHEGYSLLADGVSCTPTVEYPCGKIPILEKRNASKPQGRIVGGKVCPKGECPWQVLLLVNGAQLCGGTLINTIWVVSAAHCFDKIKNWRNLIAVLGEHDLSEHDGDEQSRRVAQVIIPSTYVPGTTNHDIALLRLHQPVVLTDHVVPLCLPERTFSERTLAFVRFSLVSGWGQLLDRGATALELMVLNVPRLMTQDCLQQSRKVGDSPNITEYMFCAGYSDGSKDSCKGDSGGPHATHYRGTWYLTGIVSWGQGCATVGHFGVYTRVSQYIEWLQKLMRSEPRPGVLLRAPFP
In the case of B1, in series [3], the “necrosis, average area as percentage of total tumor area” value is given as “some necrosis”.

B2: H6-tTF219-cys-C′: tTF219 with (His)6 tag and a Cys after amino acid 219 (protein)
chain: HHHHHHAMALVPRGSGTTNTVAAYNLTWKSTNFKTILEWEPKPVNQVYTVQISTKSGDWKSKCFYTTDTECDLTDEIVKVKQTYLARVFSYPAGNVESTGSAGEPLYENSPEFTPYLETNLGQPTIQSFEQVGTKVNVTVEDRTLVRRNNTFLSLRDVFGKDLIYTLYYWKSSSSGKKTAKTNTNEFLIDVDKGENYCFSVQAVIPSRTVNRKSTDSPVECMGQEKGEFREC
For B2, in the series with A20 lymphoma cells, the “concentration at which plasma coagulated in 50 seconds” value (from here on “concentration … in 50 seconds”) stood at 3 nM.

B3: IgG-H6-N′-cys-tTF219: one molecule of IgG linked via SMPT to one or two molecules of H6-N′-cys-tTF219 (conjugate)
chain: HHHHHHAMALVPRGSCGTTNTVAAYNLTWKSTNFKTILEWEPKPVNQVYTVQISTKSGDWKSKCFYTTDTECDLTDEIVKDVKQTYLARVFSYPAGNVESTGSAGEPLYENSPEFTPYLETNLGQPTIQSFEQVGTKVNVTVEDERTLVRRNNTFLSLRDVFGKDLIYTLYYWKSSSSGKKTAKTNTNEFLIDVDKGENYCFSVQAVIPSRTVNRKSTDSPVECMGQEKGEFRE
modifications: left off: large carriers
Consider B3, for which, in the series with A20 lymphoma cells, the “fold less active at inducing coagulation of plasma than tTF219 / unconjugated or monomeric form” value was determined as 5 fold and the “concentration … in 50 seconds” value was found to be 5 nM. For the same molecule, the “activity at inducing Xa formation relative to H6-N′-cys-tTF219 (fold less active)” value in [4] worked out at 2 fold.

B4: Fab′-H6-N′-cys-tTF219: Fab′ fragment disulfide-linked to H6-N′-cys-tTF219 (conjugate)
chain: B3 chain
modifications: left off: another chain or arm of the molecule; large carriers
As to B4, the “activity at inducing Xa formation relative to H6-N′-cys-tTF219 (fold less active)” value in [4] is on record as “as active as”.

B5: anti-VEGF antibody 2C3 (antibody, V domains shown)
VH: QVQLQESGPELVKPGASVKMSCKASGYTFTSYVFHWVKQKPGQGLEWIGYINPYNDVTKYNEKFKGKATLTSDKSSSTAYMELSSLTSEDSAVYYCASYYGSSYGYYAMDDWGQGTTVTVSS
VL: DIQLTQSPASLSVSAGEKVTMSCKSSQSLLNSGNQKNYLAWYQQKPGQPPKLLIHGASTRESGVPDRFTGSGSGTDFTLTISSVQAEDLAVYYCQNDYSYPLTFGAGTKLELKR
As for B5, the results for the EC50 (in series [5]; with VEGF:Flk-1 complex) were 1 nM and 150 nM, respectively. In addition, the “percent of VEGF bound to VEGFR1-coated wells relative to no 2C3” value in series [6] is 92%; in series [7], 105%.

B6: H6-tTF220-cys-C′: tTF with Ile-Cys after amino acid 219, (His)6 tag (protein)
chain: HHHHHHAMALVPRGSGTTNTVAAYNLTWKSTNFKTILEWEPKPVNQVYTVQISTKSGDWKSKCFYTTDTECDLTDEIVKDVKQTYLARVFSYPAGNVESTGSAGEPLYENSPEFTPYLETNLGQPTIQSFEQVGTKVNVTVEDERTLVRRNNTFLSLRDVFGKDLIYTLYYWKSSSSGKKTAKTNTNEFLIDVDKGENYCFSVQAVIPSRTVNRKSTDSPVECMGQEKGEFRE
On to B6, for which the “concentration … in 50 seconds” value in the series with A20 lymphoma cells stood at 0.5 nM.

B7: H6-tTF221-cys-C′: tTF with Ile-Phe-Cys after amino acid 219, (His)6 tag (protein)
chain: B6 chain
Take B7: the “concentration … in 50 seconds” value came out at 0.5 nM in the series with A20 lymphoma cells and 1 nM in the series on A20 lymphoma cells (listed as H6-tTF221-cys-C′ monomer).

B8: H6-tTF221-cys-C′ dimer: chemically conjugated disulfide dimer of H6-tTF221-cys-C′ (protein)
chain: B6 chain
Take B8: the “fold less active at inducing coagulation of plasma than tTF219 / unconjugated or monomeric form” value in the series on A20 lymphoma cells worked out at 4 fold.

B9: tTF219 (G164A): tTF219 with amino acid 164 (Gly) replaced by Ala (protein)
chain: GSGTTNTVAAYNLTWKSTNFKTILEWEPKPVNQVYTVQISTKSGDWKSKCFYTTDTECDLTDEIVKDVKQTYLARVFSYPAGNVESTGSAGEPLYENSPEFTPYLETNLGQPTIQSFEQVGTKVNVTVEDERTLVRRNNTFLSLRDVFGKDLIYTLYYWKSSSSAKKTAKTNTNEFLIDVDKGENYCFSVQAVIPSRTVNRKSTDSPVECMGQEKGEFRE
As for B9, the “coagulation times versus tTF219 and Factor VIIa at the same concentrations” value in the series on A20 lymphoma cells is on record as “only marginally slower coagulation times”. The “necrosis, average area as percentage of total tumor area” value in series [3] was “some necrosis”.

B10: tTF219 (W158R) (protein)
chain: B9 chain with W159R, A165G
Consider B10, for which the “coagulation times versus tTF219 and Factor VIIa at the same concentrations” value in the series with A20 lymphoma cells was “only marginally slower coagulation times”.
